The labels stand for the following.
B1: 11889 (antibody, V domains shown)
VH: QSLEESGGDLVKPGASLTLTCTASGFSFSSSYWICWVRQAPGKGLEWIACIYAGSSGSTYYASWAKGRFTISKTSSTTVTLQMTSLTAADTATYFCATAYAVSAPFGYTLFKYFELWGPGTLVTVSS
VL: AVVLTQTASPVSAPVGGTVTIKCQASQNIYSDLAWYQQKPGQPPKLLIYDTSNLASGVSSRFKGSRSGTEFTLTISDLECADAATYYCQAYYYSSSSGDTTFGGGTEVVVK
B2: 11886 (antibody, V domains shown)
VH: QSVEESGGRLVTPGTPLTLTCIVSGFSLSNYYMSWVRQVPGKGLEWIGVIGWSGTSSYASWAKGRFTISKTASTTVDLKITSPTTEDTATYFCARVLYIGGGFNYYDAFDPWGPGTLVTVSS
VL: DVVMTQTPASVSEPVGGTVTIKCQASQSIGSNLAWYQQKPGQPPKLLIYAASTLASGVPSRFKGSGSGTEFTLTISDLECADAATYYCQCTYYDSSYVYNNFGGGTEVVVK
B3: 11892 (antibody, V domains shown)
VH: QSMEESGGRLVTPGTPLTLTCTVSGFSLSIYSMSWVRQAPGKGLEWIGIIYLGDRAYYASWAKGRFTISKTSSTTVDLKITSPTTEDTATYFCARVAGYAGYGYAFYDAFDPWGPGTLVTVSS
VL: DVVMTQTPASVSEPVGGTVTIKCQASQSIGSNLAWYQQKPGQPPKLLIYAASTLASGVPSRFKGSGSGTEFTLTINGVQCDDTATYYCQCTYYANTYVAETFGGGTEVVVK
B4: 11881 (antibody, V domains shown)
VH: QSMEESGGRLVTPGTPLTLTCTVSGFSLSIYSMSWVRQAPGKGLEWIGIIYLGDRAYYASWAKGRFTISKTSSTTVDLKITSPTTEDTATYFCARVAGYAGYGYAFYDAFDPWGPGTLVTVSS
VL: DVVMTQTPASVSEPVGGTVTIKCQASQSIGSNLAWYQQKPGQPPKLLIYAASTLASGVPSRFKGSGSGTEFTLTINGVQCDDTATYYCQCTYYASTYVAETFGGGTEVVVK

For the assay, the target named is TAFV GP (YP_003815426.1) (Tai Forest Ebola virus, UniProt Q66810 33-676). Description: flow cytometry on transiently transfected HEK293 cells.
In the case of B1, the binding result is listed as “binds”.

For the molecule B2, the binding result is listed as “binds”.

Take B3: the binding result is on record as “binds”.

On to B4, for which the binding result is “binds”.
